Results from patent US7189519B2, “Bead-based detection of ligand-GPCR-G protein complexes” (STC.UNM, priority 1998, dated 2007).

B1: RGS8: regulator of G protein signaling protein (protein, UniProt P57771 1-180, looked up)
Regulator of G-protein …: MAALLMPRRNKGMRTRLGCLSHKSDSCSDFTAILPDKPNRALKRLSTEEATRWADSFDVLLSHKYGVAAFRAFLKTEFSEENLEFWLACEEFKKTRSTAKLVSKAHRIFEEFVDVQAPREVNIDFQTREATRKNLQEPSLTCFDQAQGKVHSLMEKDSYPRFLRSKMYLDLLSQSQRRLS
B2: RGS4: regulator of G protein signaling protein (protein, UniProt P49798 1-205, looked up)
Regulator of G-protein …: MCKGLAGLPASCLRSAKDMKHRLGFLLQKSDSCEHNSSHNKKDKVVICQRVSQEEVKKWAESLENLISHECGLAAFKAFLKSEYSEENIDFWISCEEYKKIKSPSKLSPKAKKIYNEFISVQATKEVNLDSCTREETSRNMLEPTITCFDEAQKKIFNLMEKDSYRRFLKSRFYLDLVNPSSCGAEKQKGAKSSADCASLVPQCA
B3: RGS2: regulator of G protein signaling protein (protein, UniProt P41220 1-211, looked up)
Regulator of G-protein …: MQSAMFLAVQHDCRPMDKSAGSGHKSEEKREKMKRTLLKDWKTRLSYFLQNSSTPGKPKTGKKSKQQAFIKPSPEEAQLWSEAFDELLASKYGLAAFRAFLKSEFCEENIEFWLACEDFKKTKSPQKLSSKARKIYTDFIEKEAPKEINIDFQTKTLIAQNIQEATSGCFTTAQKRVYSLMENNSYPRFLESEFYQDLCKKPQITTEPHAT
B4: RGS7: regulator of G protein signaling protein (protein, UniProt P49802 1-495, looked up)
Regulator of G-protein …: MAQGNNYGQTSNGVADESPNMLVYRKMEDVIARMQDEKNGIPIRTVKSFLSKIPSVFSGSDIVQWLIKNLTIEDPVEALHLGTLMAAHGYFFPISDHVLTLKDDGTFYRFQTPYFWPSNCWEPENTDYAVYLCKRTMQNKARLELADYEAESLARLQRAFARKWEFIFMQAEAQAKVDKKRDKIERKILDSQERAFWDVHRPVPGCVNTTEVDIKKSSRMRNPHKTRKSVYGLQNDIRSHSPTHTPTPETKPPTEDELQQQIKYWQIQLDRHRLKMSKVADSLLSYTEQYLEYDPFLLPPDPSNPWLSDDTTFWELEASKEPSQQRVKRWGFGMDEALKDPVGREQFLKFLESEFSSENLRFWLAVEDLKKRPIKEVPSRVQEIWQEFLAPGAPSAINLDSKSYDKTTQNVKEPGRYTFEDAQEHIYKLMKSDSYPRFIRSSAYQELLQAKKKSGNSMDRRTSFEKFAQNVGRNIPIFPCHKNCTPTLRASTNLL

Biological target: T1, FPR-αi2 (R-α) fusion protein (UniProt P04897+P21462)
T1 construct: expressed in transfected cells; U937 stated only for FPR
Test: RGS activity assay on beads (FPR-αi2, fluorescent ligand, GTP, Gβγ beads)
Format: biochemical
Method: FPR-αi2 (R-α) was used in the standard assembly assay with fluorescent ligand (see FIG. 3, complex C), and with the amounts of GTP and RGS shown in FIG. 7, using beads coated with Gβγ. Bead fluorescence was measured as previously described.
Standard LRG Assembly Assay. The standard 10 μl assay consisted of 2 μl of water or 10^−4M GTPγS, 6 μl of soluble receptor preparation with or without ligand, and 2 μl of beads prepared as above, with 0.7 pmol G protein used per assay, and an unknown fraction left on the beads in the proper orientation. For FPR and R-αi2 assemblies, L^F (fMLFK-FITC) was added in excess of receptor to ensure that essentially all the receptor was bound. For FPR-GFP assembly, 10^−6 M L (fMLFFGGK) was added to the receptor preparation to ensure that essentially all the receptor was bound. Each mixture was mixed by pipetting to ensure a uniform starting suspension of the beads in 96 V-well plates (Costar), and then mixed at low speed on a vortex mixer at 7° for two hours. The 10 μl assays were individually brought to 200 μl with 0.1% dodecyl maltoside in buffer A in 12×75 mm tubes for flow cytometric measurement of fluorescence of the beads. LRG assembly was defined as the difference between fluorescence without GTPγS and that with GTPγS. All determinations were done in duplicate.
RGS Activity Affects LR-αG Assemblies on Beads. As a second mechanistic problem, the role of GTP and RGS activity in regulating the assembly of βγ subunits with the receptor-Giα fusion protein was examined (FIG. 7; see also FIGS. 3, complex C and FIG. 4B). […] The data were consistent with the idea that RGS, by enhancing the cleavage of GTP, affected the GTP dose-response for the formation of the bead-based complex. The shift in the dose-response was consistent with the consumption of 10 μM or more GTP in 10 μl over 2 hours in the presence of R-α, RGS, and L. Calculating that 24 nM R-α (the total added) consumed 10 μM GTP equally in the first half hour, leaving 60 minutes for assembly on the bead, the turnover number was ˜14 min^−1 for the receptor-Giα fusion protein at 7° C.; if rates double for every 10° C. increase, this would imply about 110 min^−1 at 37° C. Calculating consumption over the entire time yields ˜5 and 40 min^−1, respectively.
The nucleotide sensitivity of the assembly of R-αi2 with βγ allowed the activity and specificity of RGS to be examined. […] This assembly format therefore has the potential for discriminating RGS antagonists. Elsewhere it is described how GTP increases access of soluble assemblies of R-αi2 to anti-αi2 antibody, consistent with the idea of Ay binding and release (Shi M, et al., submitted).

T1 sequence (P21462+P04897 fused): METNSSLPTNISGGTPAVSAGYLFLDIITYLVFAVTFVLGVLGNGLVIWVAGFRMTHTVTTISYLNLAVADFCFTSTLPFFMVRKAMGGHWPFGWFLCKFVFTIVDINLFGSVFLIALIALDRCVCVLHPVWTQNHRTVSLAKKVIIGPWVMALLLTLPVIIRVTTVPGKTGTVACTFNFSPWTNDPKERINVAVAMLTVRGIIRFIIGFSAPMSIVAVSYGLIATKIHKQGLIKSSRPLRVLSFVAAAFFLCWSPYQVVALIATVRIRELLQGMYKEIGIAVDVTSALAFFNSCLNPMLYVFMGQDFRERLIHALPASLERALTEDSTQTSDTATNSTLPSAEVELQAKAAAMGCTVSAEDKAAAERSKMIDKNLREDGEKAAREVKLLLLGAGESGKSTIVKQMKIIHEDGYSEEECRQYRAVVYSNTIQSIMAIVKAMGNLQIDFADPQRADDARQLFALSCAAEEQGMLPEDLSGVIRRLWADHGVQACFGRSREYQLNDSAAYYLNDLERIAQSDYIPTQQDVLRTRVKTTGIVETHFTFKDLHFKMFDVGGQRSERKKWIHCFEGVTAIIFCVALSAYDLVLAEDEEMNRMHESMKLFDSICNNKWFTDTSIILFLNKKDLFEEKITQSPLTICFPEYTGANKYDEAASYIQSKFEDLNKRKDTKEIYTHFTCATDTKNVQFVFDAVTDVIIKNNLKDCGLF

**Q.** Which “GTP consumption in the presence of LR-α” value does the source give for B1 here?
**A.** appeared to consume GTP

**Q.** For B2, which “GTP consumption in the presence of LR-α” value is on record?
**A.** appeared to consume GTP

**Q.** Which “GTP consumption in the presence of LR-α” value does the source give for B3 here?
**A.** did not

**Q.** Which “GTP consumption in the presence of LR-α” value does the source give for B4 here?
**A.** appeared to consume GTP
